Test [1] deals with CTLA4-mFc fusion protein (human). Briefly: competitive ELISA; competitor B7-1-hFc coated 1 ug/ml; CTLA4-mFc 0.3 ug/ml; antibody dilution 1:3 from 3 ug/ml; replicate 1.
Test [2] has the same target. Nature of the test: competitive ELISA; competitor B7-1-hFc coated 1 ug/ml; CTLA4-mFc 0.3 ug/ml; antibody dilution 1:81 from 3 ug/ml; replicate 2. (In an ELISA, binding on a coated surface is turned into a signal by an enzyme label.)
Test [3] has the same target. Nature of the test: competitive ELISA; competitor B7-1-hFc coated 1 ug/ml; CTLA4-mFc 0.3 ug/ml; antibody dilution 1:243 from 3 ug/ml; replicate 1.
Test [4] shares this target. Nature of the test: competitive ELISA; competitor B7-1-hFc coated 1 ug/ml; CTLA4-mFc 0.3 ug/ml; antibody dilution 1:9 from 3 ug/ml; replicate 2.
For test [5] the target is unchanged. Nature of the test: competitive ELISA; competitor B7-1-hFc coated 1 ug/ml; CTLA4-mFc 0.3 ug/ml; antibody 3 ug/ml; replicate 1.
Test [6] shares this target. Briefly: competitive ELISA; competitor B7-1-hFc coated 1 ug/ml; CTLA4-mFc 0.3 ug/ml; antibody dilution 1:243 from 3 ug/ml; replicate 2.
Test [7] shares this target. Nature of the test: competitive ELISA; competitor B7-1-hFc coated 1 ug/ml; CTLA4-mFc 0.3 ug/ml; antibody 0 (no antibody); replicate 1.
Test [8] has the same target. Nature of the test: competitive ELISA; competitor B7-1-hFc coated 1 ug/ml; CTLA4-mFc 0.3 ug/ml; antibody 3 ug/ml; replicate 2.
Test [9] has the same target. Nature of the test: competitive ELISA; competitor B7-1-hFc coated 1 ug/ml; CTLA4-mFc 0.3 ug/ml; antibody dilution 1:729 from 3 ug/ml; replicate 2.
Test [10] has the same target. Briefly: competitive ELISA; competitor B7-1-hFc coated 1 ug/ml; CTLA4-mFc 0.3 ug/ml; antibody 0 (no antibody); replicate 2.
For test [11] the target is unchanged. Briefly: competitive ELISA; competitor B7-1-hFc coated 1 ug/ml; CTLA4-mFc 0.3 ug/ml; antibody dilution 1:27 from 3 ug/ml; replicate 2.
The target is the same in test [12]. Briefly: competitive ELISA; competitor B7-1-hFc coated 1 ug/ml; CTLA4-mFc 0.3 ug/ml; antibody dilution 1:27 from 3 ug/ml; replicate 1.
The target is the same in test [13]. Briefly: competitive ELISA; competitor B7-1-hFc coated 1 ug/ml; CTLA4-mFc 0.3 ug/ml; antibody dilution 1:81 from 3 ug/ml; replicate 1.
Test [14] shares this target. Nature of the test: competitive ELISA; competitor B7-1-hFc coated 1 ug/ml; CTLA4-mFc 0.3 ug/ml; antibody dilution 1:9 from 3 ug/ml; replicate 1.
For test [15] the target is unchanged. Briefly: competitive ELISA; competitor B7-1-hFc coated 1 ug/ml; CTLA4-mFc 0.3 ug/ml.
Test [16] shares this target. Nature of the test: competitive ELISA; competitor B7-1-hFc coated 1 ug/ml; CTLA4-mFc 0.3 ug/ml; antibody dilution 1:729 from 3 ug/ml; replicate 1.
The target is the same in test [17]. Briefly: competitive ELISA; competitor B7-1-hFc coated 1 ug/ml; CTLA4-mFc 0.3 ug/ml; antibody dilution 1:3 from 3 ug/ml; replicate 2.

Chain of CTLA4-mFc fusion protein (human) (chain, as listed by the source limits assumed): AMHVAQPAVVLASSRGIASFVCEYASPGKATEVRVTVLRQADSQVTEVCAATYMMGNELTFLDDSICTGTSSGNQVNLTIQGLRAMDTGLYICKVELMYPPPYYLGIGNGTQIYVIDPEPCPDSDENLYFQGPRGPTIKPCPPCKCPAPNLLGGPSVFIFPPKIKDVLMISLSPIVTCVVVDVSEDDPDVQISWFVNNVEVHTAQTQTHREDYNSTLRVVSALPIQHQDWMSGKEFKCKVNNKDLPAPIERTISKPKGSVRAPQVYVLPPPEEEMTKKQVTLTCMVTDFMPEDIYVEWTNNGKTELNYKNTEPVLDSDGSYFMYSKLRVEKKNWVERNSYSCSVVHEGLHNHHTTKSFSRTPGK

As to “control antibody 10D1 (anti-CTLA4 antibody)”, the absorbance at 450 nm in test [1] was found to be 0.144; in test [2] it was 0.663; in test [3], 0.556; in [4] it was 0.312; in test [5] it was 0.147; in [6], 0.554. Also, the absorbance at 450 nm in test [7] amounted to 0.888; in test [8], 0.14; in test [9] it was 0.692; in test [10], 0.732; in [11], 0.365; in test [12], 0.442. In addition, the absorbance at 450 nm in [13] came out at 0.572; in [14], 0.351; in [16], 0.726; in [17] it was 0.133. The substance further registered an EC50 in test [15] of 1.12 nM.

For orientation: EC50 means the concentration at which the effect is half-maximal.
